From article PMC3845532 (Biochemistry, 2013) come the findings set out here.

Broadly, the stoichiometry N is a count of units in the complex or per binding partner.

Data set [1] has as its target C81R mutant PCNA protein from S. cerevisiae (S. cerevisiae) (UniProt P15873). Kind of data set: crystal structure.
Data set [2] deals with the molecule itself. The experiment in a line: native gel or EMSA. (A gel shift assay detects complexes by their altered migration in electrophoresis.)
In data set [3] the target is MutSα (Msh2-Msh6) from S. cerevisiae (S. cerevisiae, UniProt P25847 1-964; Q03834 1-1242). Kind of data set: ELISA. In general terms: ELISA stands for enzyme-linked immunosorbent assay.
Chain of MutSα (Msh2-Msh6) from S. cerevisiae (P25847 whole entry, chain 1 of 2): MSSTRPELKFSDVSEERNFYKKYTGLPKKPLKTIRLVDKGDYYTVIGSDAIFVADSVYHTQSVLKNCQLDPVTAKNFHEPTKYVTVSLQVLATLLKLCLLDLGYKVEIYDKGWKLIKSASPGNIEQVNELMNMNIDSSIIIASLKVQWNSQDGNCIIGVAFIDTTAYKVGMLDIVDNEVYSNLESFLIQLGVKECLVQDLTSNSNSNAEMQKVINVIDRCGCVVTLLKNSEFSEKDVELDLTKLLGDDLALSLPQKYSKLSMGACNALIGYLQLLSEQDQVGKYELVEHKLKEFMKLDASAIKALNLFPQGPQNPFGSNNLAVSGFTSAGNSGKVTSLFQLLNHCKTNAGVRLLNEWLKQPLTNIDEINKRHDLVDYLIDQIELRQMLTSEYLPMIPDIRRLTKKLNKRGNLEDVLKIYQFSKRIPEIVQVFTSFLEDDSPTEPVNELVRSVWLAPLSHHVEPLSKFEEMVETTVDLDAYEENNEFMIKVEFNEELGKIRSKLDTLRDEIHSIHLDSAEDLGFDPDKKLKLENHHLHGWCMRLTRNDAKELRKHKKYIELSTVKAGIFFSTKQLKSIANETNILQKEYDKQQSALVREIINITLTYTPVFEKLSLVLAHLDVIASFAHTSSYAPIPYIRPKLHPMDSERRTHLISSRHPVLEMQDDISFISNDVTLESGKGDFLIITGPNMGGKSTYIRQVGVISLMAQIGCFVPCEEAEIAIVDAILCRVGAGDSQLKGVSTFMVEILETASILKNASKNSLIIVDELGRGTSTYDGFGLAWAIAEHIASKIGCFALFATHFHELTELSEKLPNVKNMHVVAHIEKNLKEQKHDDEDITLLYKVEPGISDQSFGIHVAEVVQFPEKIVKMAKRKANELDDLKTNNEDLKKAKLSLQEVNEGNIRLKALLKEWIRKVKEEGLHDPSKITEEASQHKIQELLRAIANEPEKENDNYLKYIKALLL
Chain of MutSα (Msh2-Msh6) from S. cerevisiae (Q03834 whole entry, chain 2 of 2): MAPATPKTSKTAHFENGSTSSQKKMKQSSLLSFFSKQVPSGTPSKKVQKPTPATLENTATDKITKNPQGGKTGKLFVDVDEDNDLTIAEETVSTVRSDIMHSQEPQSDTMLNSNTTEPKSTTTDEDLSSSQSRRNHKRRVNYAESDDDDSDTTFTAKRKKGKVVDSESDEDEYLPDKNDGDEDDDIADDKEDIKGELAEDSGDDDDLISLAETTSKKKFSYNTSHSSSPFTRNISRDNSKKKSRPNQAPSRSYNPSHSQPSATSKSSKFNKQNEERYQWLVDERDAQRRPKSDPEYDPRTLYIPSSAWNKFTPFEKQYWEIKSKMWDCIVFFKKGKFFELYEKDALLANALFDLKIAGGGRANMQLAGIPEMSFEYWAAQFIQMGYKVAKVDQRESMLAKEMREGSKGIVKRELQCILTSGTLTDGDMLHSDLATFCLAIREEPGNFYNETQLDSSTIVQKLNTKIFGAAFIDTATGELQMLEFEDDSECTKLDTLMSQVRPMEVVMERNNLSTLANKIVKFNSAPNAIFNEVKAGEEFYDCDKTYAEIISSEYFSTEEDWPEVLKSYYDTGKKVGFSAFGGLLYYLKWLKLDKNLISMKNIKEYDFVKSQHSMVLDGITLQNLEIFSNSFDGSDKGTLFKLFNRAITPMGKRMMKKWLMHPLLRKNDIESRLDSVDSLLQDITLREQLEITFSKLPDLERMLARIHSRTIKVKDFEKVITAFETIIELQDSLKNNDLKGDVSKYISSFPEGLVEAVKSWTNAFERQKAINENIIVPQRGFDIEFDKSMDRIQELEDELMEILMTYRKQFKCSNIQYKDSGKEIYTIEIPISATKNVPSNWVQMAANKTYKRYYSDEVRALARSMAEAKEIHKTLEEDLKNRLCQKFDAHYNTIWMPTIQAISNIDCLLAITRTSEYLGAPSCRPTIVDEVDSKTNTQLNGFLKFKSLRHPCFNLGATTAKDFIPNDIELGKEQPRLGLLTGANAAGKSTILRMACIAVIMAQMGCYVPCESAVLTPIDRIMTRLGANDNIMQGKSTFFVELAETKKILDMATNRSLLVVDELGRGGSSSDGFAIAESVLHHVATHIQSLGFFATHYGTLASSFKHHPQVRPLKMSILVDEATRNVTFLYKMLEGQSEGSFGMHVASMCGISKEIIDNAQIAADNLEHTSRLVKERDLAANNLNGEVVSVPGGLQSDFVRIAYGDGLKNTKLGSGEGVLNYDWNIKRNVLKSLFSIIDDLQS
Data set [4] deals with the molecule itself. Kind of data set: crystal structure.

The molecule “C81R mutant PCNA protein from S. cerevisiae (from UniProt P15873 1-258) (natural protein)” returned a stoichiometry N in data set [1] of 3.

B1: wild-type PCNA protein (proliferating cell nuclear antigen) from S. cerevisiae (natural protein)
chain: MLEAKFEEASLFKRIIDGFKDCVQLVNFQCKEDGIIAQAVDDSRVLLVSLEIGVEAFQEYRCDHPVTLGMDLTSLSKILRCGNNTDTLTLIADNTPDSIILLFEDTKKDRIAEYSLKLMDIDADFLKIEELQYDSTLSLPSSEFSKIVRDLSQLSDSINIMITKETIKFVADGDIGSGSVIIKPFVDMEHPETSIKLEMDQPVDLTFGAKYLLDIIKGSSLSDRVGIRLSSEAPALFQFDLKSGFLQFFLAPKFNDEE
For the molecule B1, in data set [2], the “stoichiometry N” value turned out to be 3.

B2: C81R mutant PCNA protein from S. cerevisiae (natural protein)
chain: MLEAKFEEASLFKRIIDGFKDCVQLVNFQCKEDGIIAQAVDDSRVLLVSLEIGVEAFQEYRCDHPVTLGMDLTSLSKILRRGNNTDTLTLIADNTPDSIILLFEDTKKDRIAEYSLKLMDIDADFLKIEELQYDSTLSLPSSEFSKIVRDLSQLSDSINIMITKETIKFVADGDIGSGSVIIKPFVDMEHPETSIKLEMDQPVDLTFGAKYLLDIIKGSSLSDRVGIRLSSEAPALFQFDLKSGFLQFFLAPKFNDEE
Turning to B2, the binding result in data set [3] is recorded as “binds”.

B3: C22Y mutant PCNA protein from S. cerevisiae (natural protein)
chain: MLEAKFEEASLFKRIIDGFKDYVQLVNFQCKEDGIIAQAVDDSRVLLVSLEIGVEAFQEYRCDHPVTLGMDLTSLSKILRCGNNTDTLTLIADNTPDSIILLFEDTKKDRIAEYSLKLMDIDADFLKIEELQYDSTLSLPSSEFSKIVRDLSQLSDSINIMITKETIKFVADGDIGSGSVIIKPFVDMEHPETSIKLEMDQPVDLTFGAKYLLDIIKGSSLSDRVGIRLSSEAPALFQFDLKSGFLQFFLAPKFNDEE
Regarding B3, the binding result in data set [3] is on record as “binds”. Moreover, the “stoichiometry N” value in data set [4] was 3.
